According to PMC3459973:

Target: TFAP2 (AP-2) (UniProt P05549)
Test: DNA pull-down, SILAC MS and immunoblot
Details: PBB: 150 mM NaCl, 50 mM Tris/HCl pH 8.0, 10 mM MgCl2, 0.5% NP-40, protease inhibitor; 200 ug SILAC nuclear extract, 2 h at 4 C (automated: 8 C); elution 16 mM …

Chain of TFAP2 (AP-2) (P05549 whole entry): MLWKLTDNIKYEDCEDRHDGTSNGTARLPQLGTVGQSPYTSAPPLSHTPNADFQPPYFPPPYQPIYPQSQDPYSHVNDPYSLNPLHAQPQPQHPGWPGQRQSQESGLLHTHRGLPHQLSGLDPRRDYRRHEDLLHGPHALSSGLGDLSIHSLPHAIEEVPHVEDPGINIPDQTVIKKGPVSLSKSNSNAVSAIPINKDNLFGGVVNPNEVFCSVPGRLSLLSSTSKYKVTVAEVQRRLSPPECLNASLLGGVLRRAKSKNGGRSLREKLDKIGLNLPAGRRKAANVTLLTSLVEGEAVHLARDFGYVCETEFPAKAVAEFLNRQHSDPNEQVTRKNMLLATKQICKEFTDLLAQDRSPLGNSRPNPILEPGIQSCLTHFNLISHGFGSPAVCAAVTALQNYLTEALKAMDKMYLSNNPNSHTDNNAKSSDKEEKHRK

AACAAAACTGCAGGATCGAACTGACCGCCCGGGGCACGTGTC / TTGACACGTGCCCCGGGCGGTCAGTTCGATCCTGCAGTTTTG [AP2_C]
binding signal (SILAC ratio C/A): 10
